In publication PMC3074231 (Journal of neurochemistry, 2011):
Where “and” joins values, the source holds several entries; their conditions need not be identical. Equal entries are not always repeated.

B1: STEP61 Cys 65 to Ser (enzyme, UniProt P54830-1 1-541, looked up)
chain: MCCSERLLGLPQPVEMEAPDEAEGLPSKQKEMPPPPPPSPPSEPAQKLPPQGAGSHSLTVRSSLSLFAASQFLLACGVLWLSGHGHSWLQNTTDLISSSLTVLNHLGPVAWLGSGTWGIPSLLLVSLTVSLVIVTTLVWHLLKAPPEPPAPLPPEDRRQSVSRQPSFTYSEWMEEKVEDDFLDLDAVPETPVFDCVMDIKPETDPASLTVKSMGLQERRGSNVSLTLDMCTPGCNEEGFGYLVSPREESAHEYLLSASRVLRAEELHEKALDPFLLQAEFFEIPMNFVDPKEYDIPGLVRKNRYKTILPNPHSRVRLTSPDPEDPLSSYINANYIRGYSGEEKVYIATQGPIVSTVADFWRMVWQERTPIIVMITNIEEMNEKCTEYWPEEQVVHDGVEITVQKVIHTEDYRLRLISLRRGTEERSLKHYWFTSWPDQKTPDRAPPLLHLVREVEEAAQQEGPHCSPIIVHCSAGIGRTGCFIATSICCQQLRREGVVDILKTTCQLRQDRGGMIQTCEQYQFVHHAMSLYEKQLSLQSSE
B2: STEP61 Cys 76 to Ser (enzyme, UniProt P54830-1 1-541, looked up)
chain: MCCSERLLGLPQPVEMEAPDEAEGLPSKQKEMPPPPPPSPPSEPAQKLPPQGAGSHSLTVRSSLCLFAASQFLLASGVLWLSGHGHSWLQNTTDLISSSLTVLNHLGPVAWLGSGTWGIPSLLLVSLTVSLVIVTTLVWHLLKAPPEPPAPLPPEDRRQSVSRQPSFTYSEWMEEKVEDDFLDLDAVPETPVFDCVMDIKPETDPASLTVKSMGLQERRGSNVSLTLDMCTPGCNEEGFGYLVSPREESAHEYLLSASRVLRAEELHEKALDPFLLQAEFFEIPMNFVDPKEYDIPGLVRKNRYKTILPNPHSRVRLTSPDPEDPLSSYINANYIRGYSGEEKVYIATQGPIVSTVADFWRMVWQERTPIIVMITNIEEMNEKCTEYWPEEQVVHDGVEITVQKVIHTEDYRLRLISLRRGTEERSLKHYWFTSWPDQKTPDRAPPLLHLVREVEEAAQQEGPHCSPIIVHCSAGIGRTGCFIATSICCQQLRREGVVDILKTTCQLRQDRGGMIQTCEQYQFVHHAMSLYEKQLSLQSSE
B3: STEP61 C65S/C76S (enzyme, UniProt P54830-1 1-541, looked up)
chain: MCCSERLLGLPQPVEMEAPDEAEGLPSKQKEMPPPPPPSPPSEPAQKLPPQGAGSHSLTVRSSLSLFAASQFLLASGVLWLSGHGHSWLQNTTDLISSSLTVLNHLGPVAWLGSGTWGIPSLLLVSLTVSLVIVTTLVWHLLKAPPEPPAPLPPEDRRQSVSRQPSFTYSEWMEEKVEDDFLDLDAVPETPVFDCVMDIKPETDPASLTVKSMGLQERRGSNVSLTLDMCTPGCNEEGFGYLVSPREESAHEYLLSASRVLRAEELHEKALDPFLLQAEFFEIPMNFVDPKEYDIPGLVRKNRYKTILPNPHSRVRLTSPDPEDPLSSYINANYIRGYSGEEKVYIATQGPIVSTVADFWRMVWQERTPIIVMITNIEEMNEKCTEYWPEEQVVHDGVEITVQKVIHTEDYRLRLISLRRGTEERSLKHYWFTSWPDQKTPDRAPPLLHLVREVEEAAQQEGPHCSPIIVHCSAGIGRTGCFIATSICCQQLRREGVVDILKTTCQLRQDRGGMIQTCEQYQFVHHAMSLYEKQLSLQSSE
B4: STEP61 (STriatal Enriched Phosphatase, membrane associated isoform), wild type (enzyme, UniProt P54830-1 1-541, looked up)
chain: MCCSERLLGLPQPVEMEAPDEAEGLPSKQKEMPPPPPPSPPSEPAQKLPPQGAGSHSLTVRSSLCLFAASQFLLACGVLWLSGHGHSWLQNTTDLISSSLTVLNHLGPVAWLGSGTWGIPSLLLVSLTVSLVIVTTLVWHLLKAPPEPPAPLPPEDRRQSVSRQPSFTYSEWMEEKVEDDFLDLDAVPETPVFDCVMDIKPETDPASLTVKSMGLQERRGSNVSLTLDMCTPGCNEEGFGYLVSPREESAHEYLLSASRVLRAEELHEKALDPFLLQAEFFEIPMNFVDPKEYDIPGLVRKNRYKTILPNPHSRVRLTSPDPEDPLSSYINANYIRGYSGEEKVYIATQGPIVSTVADFWRMVWQERTPIIVMITNIEEMNEKCTEYWPEEQVVHDGVEITVQKVIHTEDYRLRLISLRRGTEERSLKHYWFTSWPDQKTPDRAPPLLHLVREVEEAAQQEGPHCSPIIVHCSAGIGRTGCFIATSICCQQLRREGVVDILKTTCQLRQDRGGMIQTCEQYQFVHHAMSLYEKQLSLQSSE

Experiments:
[1] = target: STEP46 (cytosolic isoform of STEP), wild type
co-IP [2] = target: the molecule itself; experiment: co-IP
co-IP [3] = target: the molecule itself; experiment: co-IP; remark: listed apart in the source

Row | Molecule | phosphatase activity of STEP46 in the presence of H2O2, % of control [1] | co-immunoprecipitated STEP61-myc, % of WT control (co-IP [2]) | co-immunoprecipitated STEP61-myc, % of untreated WT control (10 mM H2O2, 5 min) (co-IP [3])
1 | STEP46 (cytosolic isoform of STEP), wild type (enzyme) | 40.3 % of control | – | –
2 | B1 | – | 38.4 % of control | –
3 | B2 | – | 35.2 % of control | –
4 | B3 | – | 13.5 % of control and 16.6 % of WT control | 39.4 % of WT control
5 | B4 | – | – | 232 % of WT control
